# Source: publication PMC9732821, “Neurotrophic Activity and Its Modulation by Zinc Ion of a Dimeric Peptide Mimicking the Brain-Derived Neurotrophic Factor N-Terminal Region” (ACS Chemical Neuroscience, 2022)
# Tests used:
# [1] = biological target: TrkB receptor, endogenous in differentiated SH-SY5Y cells (human (endogenous in SH-SY5Y)) (UniProt Q16620)
# [2] = biological target: TrkB receptor, endogenous in differentiated SH-SY5Y cells (human (endogenous in SH-SY5Y)) (UniProt Q16620); test: immunostaining of cells or tissue; non-permeabilizing immunofluorescence of membrane-bound BDNF on differentiated SH-SY5Y cells; 1 h treatment with BDNF 150 ng/mL, d-bdnf 10 μM, or both
# TrkB = conditions: synaptic cleft; cited from earlier work
# Description: BDNF is the predominant NT in the adult brain and is widely distributed in the cortical areas, visual cortex, and hippocampus.[3] Activation of TrkB by BDNF initiates downstream signaling cascades mediated by Ras/ERK, PI3K/Akt, and PLC-γ.[4] After its activation, the BDNF–TrkB complex undergoes endocytosis, recycling, or degradation and crucially takes the axonal transport route to sustain neuron survival and differentiation.[5] Furthermore, BDNF/TrkB signaling regulates dendritic branching, the density of spines, and spine morphological specializations, acting both as the mediator and modulat ... || The modulation of the BDNF–TrkB signaling axis has been recently postulated as a drug target for the treatment of neurological diseases, including nerve injury, neurodegenerative diseases, and neuropsychiatric disorders.[15],[16] Unfortunately, the therapeutic use of BDNF, as that of other NTs, is challenging due to the uncontrolled side effects as well as their low bioavailability.[17] To overcome such limitations, the use of peptide fragments that can mimic specific domains of the NTs has been explored in the last few years.[18] The most investigated BDNF structural elements have been so far ...
# UniProt Q16620, sequence (Q16620 32-822): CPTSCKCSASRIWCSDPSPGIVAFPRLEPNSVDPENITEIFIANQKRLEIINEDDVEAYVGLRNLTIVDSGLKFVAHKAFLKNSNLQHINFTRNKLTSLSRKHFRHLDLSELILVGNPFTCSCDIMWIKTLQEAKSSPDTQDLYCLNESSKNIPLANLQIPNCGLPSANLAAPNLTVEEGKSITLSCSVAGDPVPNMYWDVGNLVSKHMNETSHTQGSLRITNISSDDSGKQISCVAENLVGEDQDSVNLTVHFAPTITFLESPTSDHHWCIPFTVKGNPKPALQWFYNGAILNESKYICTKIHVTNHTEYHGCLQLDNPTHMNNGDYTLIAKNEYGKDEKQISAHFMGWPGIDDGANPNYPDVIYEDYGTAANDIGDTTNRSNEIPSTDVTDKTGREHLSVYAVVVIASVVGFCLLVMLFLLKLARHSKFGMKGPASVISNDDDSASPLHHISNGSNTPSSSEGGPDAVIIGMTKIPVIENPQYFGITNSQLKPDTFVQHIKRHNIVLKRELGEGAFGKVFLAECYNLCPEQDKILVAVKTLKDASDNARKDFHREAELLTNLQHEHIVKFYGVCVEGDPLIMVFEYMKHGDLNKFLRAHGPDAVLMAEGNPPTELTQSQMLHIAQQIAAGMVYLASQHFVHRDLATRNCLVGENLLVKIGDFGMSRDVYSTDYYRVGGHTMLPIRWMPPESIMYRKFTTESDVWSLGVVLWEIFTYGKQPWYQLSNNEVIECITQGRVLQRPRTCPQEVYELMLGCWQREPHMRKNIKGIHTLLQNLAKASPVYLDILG
"EC50 of ERK phosphorylation, dose-response in differentiated SH-SY5Y cells (referred to the monomer form) [1] [nM]","maximal effect (Emax) of ERK phosphorylation, dose-response in differentiated SH-SY5Y cells [1]",increase of the fluorescent signal of membrane-bound BDNF on the cells [2] [%],Molecule,TrkB activation (TrkB)
0.69,237,40,recombinant human mature BDNF (hBDNF) (ligand),
,,,[Zn+2] [zinc],"prompt post-synaptic, BDNF-independent TrkB activation"
